{
  "source": "patent US20260275312",
  "about": "“CRISPR NUCLEASE POLYPEPTIDES AND GENE EDITING SYSTEMS COMPRISING SUCH” (ARBOR BIOTECHNOLOGIES, INC., published 2026)",
  "key": {"[1]": {"biological_target": "T1, Nuclease W S925R (synthetic construct, S925R)", "T1 chain": "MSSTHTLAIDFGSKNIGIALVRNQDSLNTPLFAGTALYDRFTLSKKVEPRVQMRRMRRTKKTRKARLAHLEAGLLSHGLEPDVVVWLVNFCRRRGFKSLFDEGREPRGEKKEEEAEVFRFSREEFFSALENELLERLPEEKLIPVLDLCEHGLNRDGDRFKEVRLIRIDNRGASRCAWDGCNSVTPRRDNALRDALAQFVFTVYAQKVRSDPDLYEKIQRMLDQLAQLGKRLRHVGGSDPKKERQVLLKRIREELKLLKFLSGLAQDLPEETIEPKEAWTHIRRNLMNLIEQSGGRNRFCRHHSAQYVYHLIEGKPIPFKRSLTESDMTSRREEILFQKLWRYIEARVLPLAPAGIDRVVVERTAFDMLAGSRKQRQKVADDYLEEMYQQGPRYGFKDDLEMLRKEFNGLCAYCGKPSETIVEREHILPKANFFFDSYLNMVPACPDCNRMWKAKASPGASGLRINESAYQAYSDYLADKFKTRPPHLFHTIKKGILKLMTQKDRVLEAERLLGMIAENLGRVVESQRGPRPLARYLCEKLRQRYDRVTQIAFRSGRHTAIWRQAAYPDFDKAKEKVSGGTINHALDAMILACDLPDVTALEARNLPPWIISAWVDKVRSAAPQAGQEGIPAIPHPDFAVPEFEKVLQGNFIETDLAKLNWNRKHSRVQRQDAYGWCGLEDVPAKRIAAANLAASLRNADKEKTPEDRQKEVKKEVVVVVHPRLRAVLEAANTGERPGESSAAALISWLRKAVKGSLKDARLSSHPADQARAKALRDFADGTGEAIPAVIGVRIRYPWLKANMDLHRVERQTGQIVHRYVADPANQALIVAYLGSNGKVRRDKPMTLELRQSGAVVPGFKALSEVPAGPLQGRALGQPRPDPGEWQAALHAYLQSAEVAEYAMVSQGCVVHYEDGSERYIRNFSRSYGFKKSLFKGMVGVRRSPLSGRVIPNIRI", "assay": "cell_activity; HEK293T; PAM AAA", "details": "tags: N-term SV40 NLS, XTEN linker + C-term nucleoplasmin NLS", "procedure": "Approximately 16 hours prior to transfection, 25,000 HEK293T cells in DMEM/10% FBS+Pen/Strep (D10 media) were plated into each well of a 96-well plate. On the day of transfection, the cells were 50-90% confluent. For each well to be transfected, a mixture of Lipofectamine 2000™ (ThermoFisher Scientific) and Opti-MEM™ (ThermoFisher Scientific) was prepared and incubated at room temperature for 5 minutes (Solution 1). After incubation, the Lipofectamine 2000™:Opti-MEM™ mixture was added to a separate mixture containing the CRISPR nuclease plasmid (NLS-tagged), RNA guide plasmid, and Opti-MEM™ (Solution 2). In the case of negative controls, the CRISPR nuclease plasmid was excluded. Solutions 1 and 2 were mixed by pipetting up and down, then incubated at room temperature for 25 minutes. Following incubation, the Solution 1 and 2 mixture was added dropwise to each well of a 96-well plate containing the cells. Approximately 72 hours post transfection, cells were trypsinized by adding TrypLE™ (Thermo Fisher Scientific) to the center of each well and incubating at 37° C. for approximately 5 minutes. D10 media was then added to each well and mixed to resuspend cells. […]\nCells were transfected, and samples were prepared for NGS as described in Example 1. Indel ratios, referring to the percentage of NGS reads comprising indels, were calculated for the reference and for each variant. […]"}, "[2]": {"biological_target": "T2, Nuclease S (synthetic construct)", "T2 chain": "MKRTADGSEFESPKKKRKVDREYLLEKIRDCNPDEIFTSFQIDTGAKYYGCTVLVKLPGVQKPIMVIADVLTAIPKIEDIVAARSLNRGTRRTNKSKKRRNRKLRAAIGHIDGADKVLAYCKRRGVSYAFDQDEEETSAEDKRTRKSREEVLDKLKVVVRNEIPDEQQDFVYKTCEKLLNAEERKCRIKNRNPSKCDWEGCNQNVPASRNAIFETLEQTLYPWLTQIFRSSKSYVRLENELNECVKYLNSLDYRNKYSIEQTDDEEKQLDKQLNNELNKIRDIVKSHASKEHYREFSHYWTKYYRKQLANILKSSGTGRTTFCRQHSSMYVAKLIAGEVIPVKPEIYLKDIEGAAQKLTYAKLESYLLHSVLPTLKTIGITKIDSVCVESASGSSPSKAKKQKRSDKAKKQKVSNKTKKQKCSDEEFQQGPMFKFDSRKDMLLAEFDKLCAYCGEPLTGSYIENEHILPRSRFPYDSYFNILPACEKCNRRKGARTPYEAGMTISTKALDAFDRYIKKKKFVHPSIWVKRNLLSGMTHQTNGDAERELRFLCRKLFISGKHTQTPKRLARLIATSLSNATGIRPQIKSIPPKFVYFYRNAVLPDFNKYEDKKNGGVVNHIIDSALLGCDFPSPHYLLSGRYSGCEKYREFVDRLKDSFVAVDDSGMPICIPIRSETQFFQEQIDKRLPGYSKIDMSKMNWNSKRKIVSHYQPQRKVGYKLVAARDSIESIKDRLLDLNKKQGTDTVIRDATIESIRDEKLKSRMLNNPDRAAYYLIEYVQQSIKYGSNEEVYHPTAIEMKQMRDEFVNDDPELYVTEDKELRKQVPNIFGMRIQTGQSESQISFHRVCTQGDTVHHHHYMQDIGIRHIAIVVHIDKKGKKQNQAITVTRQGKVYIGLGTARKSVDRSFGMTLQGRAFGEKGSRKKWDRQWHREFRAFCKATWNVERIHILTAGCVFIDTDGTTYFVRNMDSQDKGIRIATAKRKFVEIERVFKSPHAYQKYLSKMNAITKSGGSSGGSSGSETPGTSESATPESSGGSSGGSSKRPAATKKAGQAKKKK", "assay": "cell_activity; HEK293T; PAM AACC 3'; very low", "details": "tags: N-term SV40 NLS, XTEN linker + C-term nucleoplasmin NLS"}},
  "data": [
    {"binder": "W EMX1-T5 RNA guide ; EMX1-T5 target (W) (ssRNA ; dsDNA) RNA: UAAACUACAGUGGUGCCUGGGUUUCAGCUACCCUGAGUUUCUCAACUCCGUUGAGACUUCCUCAGGUUCAAGCUGAAAAGAGCAUCUGUCCGGAAGGACCACUCCGGGUUAGGGCAGACCCGGCUCUUGGGCUUCCUUGGUCUUUGACUCUGGAGGAAACCUUCCGGCGUGUCGCAAGACAAGAUGUGAGCCUG DNA 1: TAAACTACAGTGGTGCCTGG DNA 2: CCAGGCACCACTGTAGTTTA", "values": [
      {"measurement": "fold change in indel ratio vs reference", "setting": "[1]", "value": 3.44, "unit": "fold indel vs reference"}
    ]},
    {"binder": "S AAVS1-T7 RNA guide ; AAVS1-T7 target (S) (ssRNA ; dsDNA) RNA: GGCUAUAAUCCAUGCUGACCGUUGUAUUCGGAUGGGAGUAAAAGGUUGAGUACACCUGGAAACAAAACGACAUAAAGGUGUUCUCCCAUCUGUGUACAAAGAGCAGAUAUAUGAGUUGAUAAGUAAUAUGUUGCACGUAUGGACUUUGACAGUCUGUACCUCUGCGUGAAAGACAUAUUGCGUUAUUCAUAUAUCUGUGAGUCUGUUCUAAAUUUAAAGGUUUAGGGAA DNA 1: GGCTATAATCCATGCTGACC DNA 2: GGTCAGCATGGATTATAGCC", "values": [
      {"measurement": "activity", "setting": "[2]", "value": 0.0048, "unit": "indel ratio"}
    ]}
  ]
}
